Patent US20170232076A1

Legend:
[1] = target: cation-independent mannose-6-phosphate receptor (CI-M6PR) on cells overexpressing CI-M6PR; experiment: cellular uptake assay on cells overexpressing CI-M6PR, intracellular Naglu activity read-out
Target sequence in this assay (P11717 41-2491): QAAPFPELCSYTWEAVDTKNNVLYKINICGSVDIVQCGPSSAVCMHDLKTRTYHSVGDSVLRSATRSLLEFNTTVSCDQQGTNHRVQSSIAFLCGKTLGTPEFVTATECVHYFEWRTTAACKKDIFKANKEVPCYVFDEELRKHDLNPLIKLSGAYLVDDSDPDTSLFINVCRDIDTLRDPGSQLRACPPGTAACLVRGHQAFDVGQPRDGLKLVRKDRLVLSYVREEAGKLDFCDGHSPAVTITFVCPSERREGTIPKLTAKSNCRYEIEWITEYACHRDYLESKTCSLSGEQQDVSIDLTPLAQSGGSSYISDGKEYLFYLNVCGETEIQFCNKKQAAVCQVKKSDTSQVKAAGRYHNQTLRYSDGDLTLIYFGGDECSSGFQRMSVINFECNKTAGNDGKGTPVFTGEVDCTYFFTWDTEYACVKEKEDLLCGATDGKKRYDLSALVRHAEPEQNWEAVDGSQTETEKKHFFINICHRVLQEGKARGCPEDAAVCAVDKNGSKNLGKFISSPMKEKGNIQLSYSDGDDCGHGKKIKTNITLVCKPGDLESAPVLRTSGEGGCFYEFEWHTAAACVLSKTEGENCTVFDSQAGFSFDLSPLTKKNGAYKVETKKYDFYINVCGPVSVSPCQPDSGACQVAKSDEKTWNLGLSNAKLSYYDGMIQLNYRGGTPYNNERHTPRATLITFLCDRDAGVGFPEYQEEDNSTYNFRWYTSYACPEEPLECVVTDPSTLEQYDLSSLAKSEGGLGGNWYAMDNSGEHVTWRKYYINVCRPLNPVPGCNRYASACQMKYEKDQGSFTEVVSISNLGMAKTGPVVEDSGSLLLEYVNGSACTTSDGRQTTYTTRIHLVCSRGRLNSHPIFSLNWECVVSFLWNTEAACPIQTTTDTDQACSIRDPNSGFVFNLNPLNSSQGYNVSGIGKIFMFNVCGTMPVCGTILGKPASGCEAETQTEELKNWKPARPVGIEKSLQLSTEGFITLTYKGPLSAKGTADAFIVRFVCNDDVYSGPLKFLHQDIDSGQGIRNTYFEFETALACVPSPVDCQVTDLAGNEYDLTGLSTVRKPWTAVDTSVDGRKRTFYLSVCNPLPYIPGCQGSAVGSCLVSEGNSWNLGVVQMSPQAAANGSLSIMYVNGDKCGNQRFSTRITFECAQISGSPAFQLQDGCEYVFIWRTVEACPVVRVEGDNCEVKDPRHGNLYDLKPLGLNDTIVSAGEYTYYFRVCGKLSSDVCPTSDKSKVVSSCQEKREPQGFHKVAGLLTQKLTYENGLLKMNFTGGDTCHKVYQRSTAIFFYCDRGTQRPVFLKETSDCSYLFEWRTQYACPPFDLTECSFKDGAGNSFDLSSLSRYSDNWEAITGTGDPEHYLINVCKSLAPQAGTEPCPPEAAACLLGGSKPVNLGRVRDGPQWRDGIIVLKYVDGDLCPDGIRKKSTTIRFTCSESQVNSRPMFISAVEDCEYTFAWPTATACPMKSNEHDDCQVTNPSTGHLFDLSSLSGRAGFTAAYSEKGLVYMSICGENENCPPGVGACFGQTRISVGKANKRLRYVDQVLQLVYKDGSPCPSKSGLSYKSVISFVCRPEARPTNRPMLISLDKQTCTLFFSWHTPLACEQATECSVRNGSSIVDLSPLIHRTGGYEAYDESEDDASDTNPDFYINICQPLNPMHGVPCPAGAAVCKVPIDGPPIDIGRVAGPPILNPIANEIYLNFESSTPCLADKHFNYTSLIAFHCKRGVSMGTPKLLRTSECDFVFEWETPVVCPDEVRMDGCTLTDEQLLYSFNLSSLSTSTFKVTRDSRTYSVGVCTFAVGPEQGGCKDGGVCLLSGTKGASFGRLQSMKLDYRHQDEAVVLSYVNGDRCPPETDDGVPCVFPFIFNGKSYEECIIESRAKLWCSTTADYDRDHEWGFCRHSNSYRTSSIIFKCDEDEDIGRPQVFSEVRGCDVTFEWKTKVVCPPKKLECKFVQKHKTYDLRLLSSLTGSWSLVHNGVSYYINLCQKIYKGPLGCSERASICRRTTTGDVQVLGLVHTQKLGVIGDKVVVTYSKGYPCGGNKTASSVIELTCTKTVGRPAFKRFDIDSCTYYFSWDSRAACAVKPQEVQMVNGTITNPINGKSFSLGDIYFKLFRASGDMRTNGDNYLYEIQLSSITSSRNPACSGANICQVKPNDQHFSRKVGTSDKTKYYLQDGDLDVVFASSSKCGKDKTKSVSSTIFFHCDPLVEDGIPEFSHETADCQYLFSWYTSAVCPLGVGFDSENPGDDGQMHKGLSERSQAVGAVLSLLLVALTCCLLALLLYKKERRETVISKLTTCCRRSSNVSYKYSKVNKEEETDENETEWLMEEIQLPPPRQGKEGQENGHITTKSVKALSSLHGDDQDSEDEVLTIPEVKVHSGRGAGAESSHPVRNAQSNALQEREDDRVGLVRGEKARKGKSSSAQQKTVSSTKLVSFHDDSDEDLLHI

[2] = target: cation-independent mannose-6-phosphate receptor (CI-M6PR) on cells overexpressing CI-M6PR; experiment: cellular uptake assay on cells overexpressing CI-M6PR, intracellular I2S enzyme activity read-out

Row | Kd [1] | Kd [2] | Substance
1 | 178 nM |  | Naglu-LIF fusion protein (produced in HT-1080 cells) (enzyme)
2 | 15 nM |  | Naglu-LIF fusion protein produced in HT-1080 cells overexpressing GNPT (enzyme)
3 |  | 1.65 nM | recombinant iduronate 2-sulfatase (I2S) produced in HT-1080 cells co-overexpressing GNPT (from UniProt P22304 26-550) (enzyme)
4 |  | 27.9 nM | recombinant iduronate 2-sulfatase (I2S) produced in HT-1080 cells overexpressing I2S alone (from UniProt P22304 26-550) (enzyme)
